Reference: the supplement of paper PMC10567573
± gives the standard deviation.

Test: protein stability index of a GFP-peptide fusion (GPS, HEK-293T) (PSI 1-6); higher = more stable
[1] = treatment: DMSO, c terminus: a fixed tail appended
[2] = treatment: MLN4924 1 uM, 8 h, c terminus: a fixed tail appended
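Note: 24-mer peptide tiles fused after GFP, lentivirally expressed, FACS-sorted into six equal bins by GFP/DsRed ratio, decoded by Illumina sequencing, PSI is the read-weighted mean bin number.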

Sequence	protein stability index [1]	protein stability index [2]	protein stability index (treatment: DMSO, c terminus: native)	protein stability index (treatment: MLN4924 1 uM, 8 h, c terminus: native)
VISKKAKVKVPQKTAGKENHFDMH [ZNF75A]	3.08 ± 0.24	3.06 ± 0.26		
VIYNYVQRPFIRMSWEKEEGKSRH [BTBD10]	2.24 ± 0.32	2.46 ± 0.17		
VKEKFSPEAFTEQLYRYVTKLLV [ALG2]			3.38 ± 0.3	3.16 ± 0.16
VKGCSMYVALFPCNECAKLIIQAG [DCTD]	2.97 ± 0.37	2.8 ± 0.49		
VKKDHVALQVPRGKEDSTLQLLRE [CBY2]	4.26 ± 0.069	4.37 ± 0.07		
VLDVNNQSFREQEEPSNKRVRPLA [NET1]	3.46 ± 0.2	3.99 ± 0.28		
VLEVRTENLKQQRSRREQFSRAPV [STX5]	3.4 ± 0.45	3.63 ± 0.41		
VLFSTHTLDKCGICQGDGSSCTHV [ADAMTSL2]	3.8 ± 0.22	4.09 ± 0.19		
VLFSVAGGLFVGKEGPMIHSGSVV [CLCN6]	2.58 ± 0.34	2.74 ± 0.5		
VLGSQDALPIATAFTEYVHAYFRG [FCHO1]	2.51 ± 0.25	2.43 ± 0.21		
VLIDLWKITKVMDVRLDREHRVAG [CLPTM1]	2.49 ± 0.68	2.57 ± 0.83		
VLISNHVTPFDHNIVNLLTTCSTP [AUP1]	2.59 ± 0.66	2.48 ± 0.35		
VLLLGSVDGRHLLRTLSRAKFWPR [DNAAF3]	2.08 ± 0.36	2.27 ± 0.15		
VLNDRFQRQKYLSLQQMQELSNIL [NANOGP8]	2.52 ± 0.11	2.64 ± 0.32		
VLSLVKKHYRLQFYMFAWTHVTLL [CDS1]	3.25 ± 0.56	2.8 ± 0.56		
VLVLCVFNSILPGVLILFLTFFAF [SOAT1]	3.37 ± 0.25	3.17 ± 0.22		
VMARTRLVVPNKGYSSLDQSPDEK [FAM219A]	4.62 ± 0.34	3.88 ± 0.42		
VMLTLSDSKHVVLPVDDDSDLNVV [RBBP5]	3.51 ± 0.14	3.49 ± 0.25		
VMTLPSDLRKHRRKLLSPVSREEN [PPFIA4]	3.61 ± 0.24	3.9 ± 0.49		
VNDLAVGLRRLGLHRTEGELQKIV [SLC25A25]	3.03 ± 0.074	3.02 ± 0.28		
VPPRRATISSWRNDRMSTRHDGYA [RBMY1A1]	3.37 ± 0.092	3.4 ± 0.36		

Sequence	protein stability index [1]	protein stability index [2]	protein stability index (treatment: DMSO, c terminus: native)	protein stability index (treatment: MLN4924 1 uM, 8 h, c terminus: native)
VQRIMVANIEEVLQRGEALSALDS [SEC22B]	2.85 ± 0.17	3.05 ± 0.39		
VQTGLDQYQQVPVEIVKSDFHKPF [IQUB]	3.5 ± 0.22	3.52 ± 0.33		
VRRECWFLPTALLCAYGFFASLRP [SLC19A2]	2.95 ± 0.29	2.93 ± 0.28		
VSISVVHGNLSEEAAKQMRSRGKV [CPOX]	3.37 ± 0.47	3.47 ± 0.52		
VSNTYVKQKTSAALSTMGTLICRK [TPD52L3]	3.41 ± 0.55	2.98 ± 0.41		
VSREENREDKATIKCETSPPSSPR [PPFIA4]	5.49 ± 0.48	5.53 ± 0.21		
VSSLSEVEEVDMAEEFEQPTLSCE [ELOA2]	5.57 ± 0.27	5.52 ± 0.17		
VTQMNHIPMHIDHDRNMDWVSTQL [FADS1]	3.14 ± 0.45	3.02 ± 0.21		
VTSDVNKLSSFYSLKLIKRLYVDK [SERPINB5]	2.18 ± 0.18	2.29 ± 0.18		
VTTTSSASVTTTSNASGRRTSDVR [KRT13]	5.07 ± 0.15	5.24 ± 0.15		
VVAGDTVSTGSTDNSPTSNSLEGG [ADAMTSL2]	5.39 ± 0.4	5.48 ± 0.15		
VVELLLAHGADPTHRLKDGSTMLI [ANKRD17]	2.13 ± 0.34	2.27 ± 0.85		
VVFLSPLTTFQDQLNRRGEFIQEI [OAS1]	2.47 ± 0.5	2.35 ± 0.48		
WAQYRQGEARFLPKDLDPSLCTHL [CHIT1]	2.65 ± 0.31	2.78 ± 0.39		
WDLSEAWMQANYDPLSDSDSMTSQ [ELOA2]	4.34 ± 0.33	4.45 ± 0.21		
WEALNMMGLYDGMEHLIYGEPRKL [MAGEA10]	2.22 ± 0.59	2.45 ± 0.34		
WFHAKSAELNKEVSTNTAMIQTSK [KRT13]	4.09 ± 0.24	4.11 ± 0.11		
WGFGLEELYGLALRFFKEKDGKAF [ACBD3]	2.4 ± 0.12	2.39 ± 0.61		
WGGAPKEGSIWRGAQMEKEWARAL [ZSWIM9]	2.8 ± 0.28	2.75 ± 0.25		
WIAHSEKLPRKVLQHVSEPQAHQE [SPACA9]	4.11 ± 0.35	4.05 ± 0.34		
WIPQAGPPELNYGATGECQNFLDP [ZNF449]	4.29 ± 0.18	4.28 ± 0.27		

Sequence	protein stability index [1]	protein stability index [2]	protein stability index (treatment: DMSO, c terminus: native)	protein stability index (treatment: MLN4924 1 uM, 8 h, c terminus: native)
WKEWGFTGVQEVLSALLRATPGEY [SPAG8]	2.06 ± 0.78	2.2 ± 0.53		
WLPLHYAAWQGHLPIVKLLAKQPG [RIPK4]	1.94 ± 0.24	2.63 ± 0.81		
WMMQNLLLEEGGLVQVESVNLQVA [UFD1]	2.1 ± 0.29	2.33 ± 0.59		
WNILKTIALGQMLSLCICGTAITS [SLC35F2]	3.03 ± 0.37	3.03 ± 0.71		
WVCQRSTVASMMHRQETVECLKKF [CAMK2B]	2.73 ± 0.51	2.9 ± 0.52		
WYQPSFHGVDLSALRGAAVDEYFR [CARM1]	2.71 ± 0.18	2.75 ± 0.34		
YDASAIDFSRCDMDGATLCNCALE [ELF3]	3.99 ± 0.32	4.02 ± 0.33		
YDPDYIQCPYCQRRFNENAADRHI [ZC2HC1A]	3.84 ± 0.24	4.16 ± 0.34		
YLGLPRLEFYRYYQQLKLEGPGEQ [SLC29A1]	2.54 ± 0.39	2.58 ± 0.38		
YLHNHFIGEGMTKYDYLMTLHGVV [TENT5D]	2.83 ± 0.6	2.48 ± 0.62		
YLHTNVALVAPLLRLENNHCHIEE [VPS39]	2.33 ± 0.2	2.74 ± 0.34		
YMMAKKHLEINPDHPIVETLRQKA [HSP90AB1]	3.01 ± 0.33	3.19 ± 0.39		
YNCGEESLQSCMHFQPNSPASDLE [NANOGP8]	4.51 ± 0.19	4.17 ± 0.45		
YQARKPLWFYNTSLKFFLNKPMLA [RHOBTB3]	2.67 ± 0.57	1.97 ± 0.19		
YQSYFKTIEELQQKILCSKSENAR [KRT33B]	2.57 ± 0.38	2.84 ± 0.49		
YRHFLKSPNFDGWFKTRRKEMTQK [DENND6A]	2.83 ± 0.37	3.24 ± 0.12		
YRWQGRRWEPSGKAEPRLPDRVYI [TBX6]	2.11 ± 0.26	2.22 ± 0.37		
YWKDTRTSGVVFTGLMVSLLCLLH [RTN2]	2.3 ± 0.24	2.2 ± 0.28		
YYFGPCGKYNAMVLELLGPSLEDL [CSNK1G3]	3 ± 1.3	2.66 ± 0.43		
